From patent US20230052369A1 (Zymeworks, published 2023)

B1: v29678 (scFv)
scFv: DIQMTQSPSSLSASVGDRVTITCQASQSIYSSLAWYQQKPGKAPKLLIYDASHLASGVPSRFSGSRYGTDFTLTISSVQPEDFATYYCQGGWYSSAATYVPNTFGGGTKVEVKGGGGSGGGGSGGGGSEVQLVESGGGLVQPGGSLRLSCAASGFTISNNYYMCWVRQAPGKGLEWIACIYGGISGRTYYADSAKGRFTISKDSSNTVYLQMNSLRAEDTAVYYCVRGYVGTSNLWGQGTLVTVSS
notes: also called C-term VL-(short)-VH
B2: v29680 (scFv)
scFv: DIQMTQSPSSLSASVGDRVTITCQASQSIYSSLAWYQQKPGKAPKLLIYDASHLASGVPSRFSGSRYGTDFTLTISSVQPEDFATYYCQGGWYSSAATYVPNTFGGGTKVEVKGGSGGGSGGGSGGGSGGGSGEVQLVESGGGLVQPGGSLRLSCAASGFTISNNYYMCWVRQAPGKGLEWIACIYGGISGRTYYADSAKGRFTISKDSSNTVYLQMNSLRAEDTAVYYCVRGYVGTSNLWGQGTLVTVSS
notes: One-armed, scFv at the C-terminus of Het FcA (GGGG linker); also called C-term VL-(long)-VH
B3: v29679 (scFv)
scFv: EVQLVESGGGLVQPGGSLRLSCAASGFTISNNYYMCWVRQAPGKGLEWIACIYGGISGRTYYADSAKGRFTISKDSSNTVYLQMNSLRAEDTAVYYCVRGYVGTSNLWGQGTLVTVSSGGGGSGGGGSGGGGSDIQMTQSPSSLSASVGDRVTITCQASQSIYSSLAWYQQKPGKAPKLLIYDASHLASGVPSRFSGSRYGTDFTLTISSVQPEDFATYYCQGGWYSSAATYVPNTFGGGTKVEVK
notes: One-armed, scFv at the C-terminus of Het FcA (GGGG linker); also called C-term VH-(short)-VL
B4: v29683 (scFv)
scFv: EVQLVESGGGLVQPGGSLRLSCAASGFTISNNYYMCWVRQAPGKCLEWIACIYGGISGRTYYADSAKGRFTISKDSSNTVYLQMNSLRAEDTAVYYCVRGYVGTSNLWGQGTLVTVSSGGGGSGGGGSGGGGSDIQMTQSPSSLSASVGDRVTITCQASQSIYSSLAWYQQKPGKAPKLLIYDASHLASGVPSRFSGSRYGTDFTLTISSVQPEDFATYYCQGGWYSSAATYVPNTFGCGTKVEVK
notes: One-armed, scFv at the C-terminus of Het FcA; VL-G100C and VH-G44C already in the entry; also called C-term VH-(short)-VL + disulfide
B5: v29681 (scFv)
scFv: EVQLVESGGGLVQPGGSLRLSCAASGFTISNNYYMCWVRQAPGKGLEWIACIYGGISGRTYYADSAKGRFTISKDSSNTVYLQMNSLRAEDTAVYYCVRGYVGTSNLWGQGTLVTVSSGGSGGGSGGGSGGGSGGGSGDIQMTQSPSSLSASVGDRVTITCQASQSIYSSLAWYQQKPGKAPKLLIYDASHLASGVPSRFSGSRYGTDFTLTISSVQPEDFATYYCQGGWYSSAATYVPNTFGGGTKVEVK
notes: One-armed, scFv at the C-terminus of Het FcA (GGGG linker); also called C-term VH-(long)-VL
B6: v29685 (scFv)
scFv: EVQLVESGGGLVQPGGSLRLSCAASGFTISNNYYMCWVRQAPGKCLEWIACIYGGISGRTYYADSAKGRFTISKDSSNTVYLQMNSLRAEDTAVYYCVRGYVGTSNLWGQGTLVTVSSGGSGGGSGGGSGGGSGGGSGDIQMTQSPSSLSASVGDRVTITCQASQSIYSSLAWYQQKPGKAPKLLIYDASHLASGVPSRFSGSRYGTDFTLTISSVQPEDFATYYCQGGWYSSAATYVPNTFGCGTKVEVK
notes: One-armed, scFv at the C-terminus of Het FcA; VL-G100C and VH-G44C already in the entry; also called C-term VH-(long)-VL + disulfide

molecular target: T1, recombinant His-tagged human FRα (human, UniProt P15328 25-234); assay: BLI, n=2
T1 construct: Bought protein; also called hFRα; FRα-HIS
T1 sequence (P15328 25-234 limits assumed): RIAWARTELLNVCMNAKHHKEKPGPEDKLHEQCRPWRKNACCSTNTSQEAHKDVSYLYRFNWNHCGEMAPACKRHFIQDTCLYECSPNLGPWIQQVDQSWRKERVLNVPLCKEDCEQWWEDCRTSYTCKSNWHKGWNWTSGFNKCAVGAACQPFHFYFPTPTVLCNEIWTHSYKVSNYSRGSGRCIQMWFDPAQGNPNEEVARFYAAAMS
Description: The assay buffer used was KB buffer (kinetics buffer, composed of PBS pH 7.4, 0.1% BSA, 0.02% Tween 20, 0.05% sodium azide) supplemented with 0.06% Tween 20. The experiment was conducted at 25° C. with a shake speed of 1000 rpm.
Data analysis was performed using the Data analysis software 9.0′ (ForteBio). The reference-subtracted binding curves were globally fitted to the 1:1 interaction model to generate the binding kinetic parameters kₒₙ, koff, and the dissociation constant KD.
All parameters remained the same except for the dissociation phase which was recorded for 1500 s.

First: B1
Second: B2
The Kd of the first is 2.8-fold higher: 5.1 nM for the first, 1.8 nM for the second. The second binds more tightly here.

First: B3
Second: B4
The Kd of the first is 2.8-fold lower: 0.39 nM for the first, 1.1 nM for the second. The first binds more tightly here.

Compared with B5, B6 is 1.6-fold higher in Kd: 2.6 nM for the first, 4.2 nM for the second. The first binds more tightly here.
